Results as given in publication PMC5415871 (Biochemistry, 2017).

Tests used:
[1] = molecular target: type 2α regulatory subunit of PKA (RIIα), full length (rat, UniProt P12368 1-401); test: fluorescence polarisation
[2] = molecular target: type 2β regulatory subunit of PKA (RIIβ), full length (rat, UniProt P12369 1-416); test: fluorescence polarisation
Chain of type 2β regulatory subunit of PKA (RIIβ), full length (P12369 whole entry): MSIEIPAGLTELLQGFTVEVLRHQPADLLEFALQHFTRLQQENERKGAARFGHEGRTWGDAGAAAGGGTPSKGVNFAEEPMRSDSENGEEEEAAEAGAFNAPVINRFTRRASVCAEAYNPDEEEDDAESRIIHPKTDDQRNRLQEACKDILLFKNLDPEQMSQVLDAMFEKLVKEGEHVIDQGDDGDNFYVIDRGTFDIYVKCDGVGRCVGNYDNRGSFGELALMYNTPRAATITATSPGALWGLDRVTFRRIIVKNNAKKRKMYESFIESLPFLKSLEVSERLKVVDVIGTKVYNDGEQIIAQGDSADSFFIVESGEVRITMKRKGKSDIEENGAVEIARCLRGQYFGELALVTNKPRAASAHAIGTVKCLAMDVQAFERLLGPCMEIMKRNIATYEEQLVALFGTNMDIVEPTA

Chain of type 2α regulatory subunit of PKA (RIIα), full length (P12368 whole entry): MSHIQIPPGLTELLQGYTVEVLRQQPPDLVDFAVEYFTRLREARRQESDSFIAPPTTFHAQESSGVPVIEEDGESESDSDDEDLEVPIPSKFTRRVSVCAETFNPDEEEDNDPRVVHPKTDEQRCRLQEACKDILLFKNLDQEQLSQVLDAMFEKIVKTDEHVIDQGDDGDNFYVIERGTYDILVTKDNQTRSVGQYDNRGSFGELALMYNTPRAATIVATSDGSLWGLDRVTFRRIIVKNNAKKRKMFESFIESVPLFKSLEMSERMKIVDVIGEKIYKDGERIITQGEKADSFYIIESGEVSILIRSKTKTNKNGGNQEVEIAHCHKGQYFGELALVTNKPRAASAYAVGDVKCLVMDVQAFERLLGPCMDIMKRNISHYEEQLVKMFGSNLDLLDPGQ

B1: S100A1 (natural protein)
chain: GSELETAMETLINVFHAHSGKEGDKYKLSKKELKELLQTELSGFLDAQKDVDAVDKVMKELDENGDGEVDFQEYVVLVAALTVACNNFFWENS
- Kd [1]: 990 nM
- Kd [2]: 2160 nM
